Reference: US20250276018A1 (AFFYIMMUNE THERAPEUTICS, published 2025)
Residue numbers refer to the chain shown, from its start. In names and notes the source's numbering stands. Read-outs that look alike come from different tables or passages of the source.

Experiments:
[1] = molecular target: T1, AF647 labeled c-met protein (UniProt P08581 25-932, limits assumed, labeled with AlexaFluor 647 (AF647)); test: flow cytometry, AF647-labeled c-met protein titrated on CAR-T cells (Round 1)
T1 construct: Soluble labeled c-met protein titrated on CAR-T cells
T1 sequence (P08581 25-932 limits assumed): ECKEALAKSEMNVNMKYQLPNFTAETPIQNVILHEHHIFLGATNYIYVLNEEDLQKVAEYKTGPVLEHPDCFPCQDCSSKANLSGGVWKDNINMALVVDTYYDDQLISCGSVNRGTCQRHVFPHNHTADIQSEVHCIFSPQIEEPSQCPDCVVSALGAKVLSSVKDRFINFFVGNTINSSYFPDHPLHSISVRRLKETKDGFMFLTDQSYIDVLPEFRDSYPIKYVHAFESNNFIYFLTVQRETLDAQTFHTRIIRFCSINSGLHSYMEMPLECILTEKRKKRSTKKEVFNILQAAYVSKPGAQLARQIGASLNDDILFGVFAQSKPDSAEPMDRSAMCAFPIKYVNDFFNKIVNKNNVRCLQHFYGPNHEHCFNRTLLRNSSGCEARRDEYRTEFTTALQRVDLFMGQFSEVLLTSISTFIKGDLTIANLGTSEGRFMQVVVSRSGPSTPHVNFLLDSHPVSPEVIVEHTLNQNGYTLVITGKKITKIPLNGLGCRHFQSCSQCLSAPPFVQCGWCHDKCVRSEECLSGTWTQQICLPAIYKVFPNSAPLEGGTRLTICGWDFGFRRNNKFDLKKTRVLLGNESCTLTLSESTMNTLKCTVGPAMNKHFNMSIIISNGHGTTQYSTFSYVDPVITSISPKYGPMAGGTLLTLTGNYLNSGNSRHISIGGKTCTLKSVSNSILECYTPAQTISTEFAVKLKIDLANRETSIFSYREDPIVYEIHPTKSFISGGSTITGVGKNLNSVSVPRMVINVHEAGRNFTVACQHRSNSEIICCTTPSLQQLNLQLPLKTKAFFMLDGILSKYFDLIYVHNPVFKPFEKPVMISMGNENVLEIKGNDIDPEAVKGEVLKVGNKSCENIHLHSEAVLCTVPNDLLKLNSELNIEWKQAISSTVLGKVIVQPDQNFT
Description: (§1) Binding of labeled c-MET to CAR-T cells expressing the affinity tuned c-MET scFvs was evaluated by transducing lentivirus anti-c-MET CAR particles into human T cells to form c-MET CAR-T cells incubated with AF647-labeled c-MET. […] Following a 48 hr. incubation at 37° C., the culture media was brought up to […] per well and incubated at 37° C. for 10 days.
(§2) Cells were stained on ice for 30 mins and then washed with PBS. After washing, residually bound protein on CAR T cells were measured on a flow cytometer (Beckman, CytoFLEX®). The resulting binding data was fit using a non-linear regression analysis on GraphPad Prism to calculate half effective dose concentration (EC₅₀) values. The results of this analysis are shown in FIGS. 2-5 and Tables 2-5 below.

[2] = molecular target: T2, c-MET on human target cells (human, UniProt P08581 25-1390); test: cell-based or functional assay
T2 sequence (P08581 25-1390): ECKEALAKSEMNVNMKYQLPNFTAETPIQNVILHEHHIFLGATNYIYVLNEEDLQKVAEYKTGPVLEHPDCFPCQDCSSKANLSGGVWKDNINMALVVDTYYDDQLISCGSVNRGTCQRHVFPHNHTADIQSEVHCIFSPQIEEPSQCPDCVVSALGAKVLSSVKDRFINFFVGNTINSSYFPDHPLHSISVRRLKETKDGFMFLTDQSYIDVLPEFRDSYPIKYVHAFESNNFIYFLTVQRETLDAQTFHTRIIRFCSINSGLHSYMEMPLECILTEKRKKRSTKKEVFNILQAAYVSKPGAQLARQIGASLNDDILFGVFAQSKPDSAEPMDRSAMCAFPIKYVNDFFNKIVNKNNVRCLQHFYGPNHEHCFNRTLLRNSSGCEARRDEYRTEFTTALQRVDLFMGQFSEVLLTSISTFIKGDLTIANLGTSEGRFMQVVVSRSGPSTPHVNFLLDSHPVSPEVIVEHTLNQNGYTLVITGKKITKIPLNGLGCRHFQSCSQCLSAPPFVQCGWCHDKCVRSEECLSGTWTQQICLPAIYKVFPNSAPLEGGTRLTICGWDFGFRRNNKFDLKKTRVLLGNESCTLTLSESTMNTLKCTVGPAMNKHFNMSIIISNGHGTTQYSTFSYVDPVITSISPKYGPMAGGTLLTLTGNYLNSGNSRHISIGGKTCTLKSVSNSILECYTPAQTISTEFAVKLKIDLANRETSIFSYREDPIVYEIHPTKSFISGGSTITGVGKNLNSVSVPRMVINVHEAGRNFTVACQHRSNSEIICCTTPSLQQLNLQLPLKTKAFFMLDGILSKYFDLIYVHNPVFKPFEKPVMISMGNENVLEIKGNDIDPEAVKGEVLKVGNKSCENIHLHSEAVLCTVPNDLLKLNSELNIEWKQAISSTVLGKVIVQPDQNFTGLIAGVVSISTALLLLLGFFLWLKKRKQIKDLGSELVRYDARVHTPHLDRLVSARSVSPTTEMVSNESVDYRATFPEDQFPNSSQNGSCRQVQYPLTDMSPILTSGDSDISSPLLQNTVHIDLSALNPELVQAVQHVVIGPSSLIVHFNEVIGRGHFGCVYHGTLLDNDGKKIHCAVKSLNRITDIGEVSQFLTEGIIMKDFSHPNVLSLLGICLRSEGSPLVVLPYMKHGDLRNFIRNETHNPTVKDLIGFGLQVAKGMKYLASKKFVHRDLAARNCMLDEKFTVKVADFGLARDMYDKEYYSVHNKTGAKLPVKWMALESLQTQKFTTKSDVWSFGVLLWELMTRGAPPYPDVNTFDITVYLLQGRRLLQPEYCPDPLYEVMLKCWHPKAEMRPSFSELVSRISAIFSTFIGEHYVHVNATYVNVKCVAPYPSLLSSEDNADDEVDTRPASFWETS

[3] = molecular target: T2, c-MET on human target cells; test: cell-based or functional assay; remark: listed apart in the source
[4] = molecular target: T2, c-MET on human target cells; test: cell-based or functional assay; remark: listed apart in the source
[5] = molecular target: T1, AF647 labeled c-met protein; test: flow cytometry, EC50 relative to parental Affy7 CAR-T cells (Round 1)
Description: as §1, §2

[6] = molecular target: T2, c-MET on human target cells; test: cell-based or functional assay; remark: listed apart in the source
[7] = molecular target: T2, c-MET on human target cells; test: cell-based or functional assay; remark: listed apart in the source
[8] = molecular target: T2, c-MET on human target cells; test: cell-based or functional assay; remark: listed apart in the source
[9] = molecular target: T2, c-MET on human target cells; test: cell-based or functional assay; remark: listed apart in the source
[10] = molecular target: T2, c-MET on human target cells; test: cell-based or functional assay; remark: listed apart in the source
[11] = molecular target: T2, c-MET on human target cells; test: cell-based or functional assay; remark: listed apart in the source
[12] = molecular target: T2, c-MET on human target cells; test: cell-based or functional assay; remark: listed apart in the source
[13] = molecular target: T2, c-MET on human target cells; test: cell-based or functional assay; remark: listed apart in the source
[14] = molecular target: T2, c-MET on human target cells; test: cell-based or functional assay; remark: listed apart in the source
[15] = molecular target: T1, AF647 labeled c-met protein; test: flow cytometry, EC50 relative to parental Affy6 CAR-T cells (Round 1)
Description: as §1, §2

[16] = molecular target: T1, AF647 labeled c-met protein; test: flow cytometry, EC50 relative to parental Affy6 CAR-T cells (Round 2)
Description: as §1, §2

[17] = molecular target: T1, AF647 labeled c-met protein; test: flow cytometry, AF647-labeled c-met protein titrated on CAR-T cells (Round 2)
[18] = molecular target: T2, c-MET on human target cells; test: cell-based or functional assay; remark: listed apart in the source
[19] = molecular target: T2, c-MET on human target cells; test: cell-based or functional assay; remark: listed apart in the source
[20] = molecular target: T2, c-MET on human target cells; test: cell-based or functional assay; remark: listed apart in the source
[21] = molecular target: T2, c-MET on human target cells; test: cell-based or functional assay; remark: listed apart in the source

B1: Affy7-Y6A CAR (other)
chain: GSEQKLISEEDLGSQVQLQQSGPELVRPGASVKMSCRASGYTFTSYWLHWVKQRPGQGLEWIGMIDPSNSDTRFNPNFKDKATLNVDRSSNTAYMLLSSLTSADSAVYYCATAGSYVSPLDYWGQGTSVTVSSGGGGSGGGGSGGGGSDIMMSQSPSSLTVSVGEKVTVSCKSSQSLLYTSSQKNYLAWYQQKPGQSPKLLIYWASTRESGVPDRFTGSGSGTDFTLTITSVKADDLAVYYCQQYYAYPWTFGGGTKLEIKRASTTTPAPRPPTPAPTIASQPLSLRPEACRPAAGGAVHTRGLDFACDFWVLVVVGGVLACYSLLVTVAFIIFWVRSKRSRLLHSDYMNMTPRRPGPTRKHYQPYAPPRDFAAYRSLRVKFSRSADAPAYQQGQNQLYNELNLGRREEYDVLDKRRGRDPEMGGKPRRKNPQEGLYNELQKDKMAEAYSEIGMKGERRRGKGHDGLYQGLSTATKDTYDALHMQALPPR
notes: CAR on transduced human T cells; Y to A in HC CDR3; P2A remnant not included; also called Affy-Y6A; MycT-Affy7-Y6A CAR-SSTR2
EC50 [1]: 3.3 µM
cytotoxicity, Normal Human Liver Cells, 8 hrs [2]: 14.2
cytotoxicity, Normal Human Liver Cells, 16 hrs [2]: 26.3
cytotoxicity, Normal Human Liver Cells, 24 hrs [2]: 33.1
cytotoxicity, Normal Human Liver Cells, 32 hrs [2]: 40.1
cytotoxicity, Normal Human Liver Cells, 40 hrs [2]: 55
cytotoxicity, Normal Human Liver Cells, 48 hrs [2]: 65
cytotoxicity, Normal Human Colon Cells, 8 hrs [3]: 26.5
cytotoxicity, Normal Human Colon Cells, 16 hrs [3]: 36.3
cytotoxicity, Normal Human Colon Cells, 24 hrs [3]: 42.5
cytotoxicity, Normal Human Colon Cells, 32 hrs [3]: 51.5
cytotoxicity, Normal Human Colon Cells, 40 hrs [3]: 62.7
cytotoxicity, Normal Human Colon Cells, 48 hrs [3]: 70.7
cytotoxicity, Normal Human Liver Cells, 8 hrs [4]: 19.3
cytotoxicity, Normal Human Liver Cells, 16 hrs [4]: 29.8
cytotoxicity, Normal Human Liver Cells, 24 hrs [4]: 44.8
cytotoxicity, Normal Human Liver Cells, 32 hrs [4]: 53.9
cytotoxicity, Normal Human Liver Cells, 40 hrs [4]: 57.5
cytotoxicity, Normal Human Liver Cells, 48 hrs [4]: 58.5
Fold Change [5]: 66 fold
cytotoxicity, Normal Human Lung Cells, 8 hrs [6]: 13.1
cytotoxicity, Normal Human Lung Cells, 16 hrs [6]: 31.3
cytotoxicity, Normal Human Lung Cells, 24 hrs [6]: 47.6
cytotoxicity, Normal Human Lung Cells, 32 hrs [6]: 50
cytotoxicity, Normal Human Lung Cells, 40 hrs [6]: 53
cytotoxicity, Normal Human Lung Cells, 47 hrs [6]: 52.1
cytotoxicity, Normal Human Kidney Cells, 8 hrs [7]: 29.2
cytotoxicity, Normal Human Kidney Cells, 16 hrs [7]: 39.3
cytotoxicity, Normal Human Kidney Cells, 24 hrs [7]: 48.9
cytotoxicity, Normal Human Kidney Cells, 32 hrs [7]: 53.9
cytotoxicity, Normal Human Kidney Cells, 40 hrs [7]: 60.5
cytotoxicity, Normal Human Kidney Cells, 48 hrs [7]: 65.9
cytotoxicity, Normal Human Lung Cells, 8 hrs [8]: 30.6
cytotoxicity, Normal Human Lung Cells, 16 hrs [8]: 32.6
cytotoxicity, Normal Human Lung Cells, 24 hrs [8]: 40.1
cytotoxicity, Normal Human Lung Cells, 32 hrs [8]: 48.3
cytotoxicity, Normal Human Lung Cells, 40 hrs [8]: 56.5
cytotoxicity, Normal Human Lung Cells, 48 hrs [8]: 64
percent cytotoxicity, Hs746T, 24 hrs [9]: 88.3%
percent cytotoxicity, Hs746T, 48 hrs [9]: 98.4%
percent cytotoxicity, Hs746T, 72 hrs [9]: 98.8%
cytotoxicity, Normal Human Kidney Cells, 8 hrs [10]: 15.8
cytotoxicity, Normal Human Kidney Cells, 16 hrs [10]: 27.1
cytotoxicity, Normal Human Kidney Cells, 24 hrs [10]: 29.4
cytotoxicity, Normal Human Kidney Cells, 32 hrs [10]: 31.1
cytotoxicity, Normal Human Kidney Cells, 40 hrs [10]: 42.6
cytotoxicity, Normal Human Kidney Cells, 48 hrs [10]: 54.7
percent cytotoxicity, H1993, 24 hrs [11]: 85.7%
percent cytotoxicity, H1993, 48 hrs [11]: 96.9%
percent cytotoxicity, H1993, 72 hrs [11]: 99.2%
cytotoxicity, Normal Human Colon Cells, 8 hrs [12]: 13.1
cytotoxicity, Normal Human Colon Cells, 16 hrs [12]: 25
cytotoxicity, Normal Human Colon Cells, 24 hrs [12]: 25.6
cytotoxicity, Normal Human Colon Cells, 32 hrs [12]: 35.8
cytotoxicity, Normal Human Colon Cells, 40 hrs [12]: 45.4
cytotoxicity, Normal Human Colon Cells, 48 hrs [12]: 45.6
percent cytotoxicity, SNU638, 24 hrs [13]: 79.2%
percent cytotoxicity, SNU638, 48 hrs [13]: 93.5%
percent cytotoxicity, SNU638, 72 hrs [13]: 98.7%

B2: Affy6-I3A CAR (other)
chain: GSEQKLISEEDLGSQVQLVQSGAEVKKPGASVKVSCKASGYIFTAYTMHWVRQAPGQGLEWMGWIKPNNGLANYAQKFQGRVTMTRDTSISTAYMELSRLRSDDTAVYYCARSEATTEFDYWGQGTLVTVSSGGGGSGGGGSGGGGSDIVLTQSPDSLAVSLGERATINCKSSESVDSYANSFMHWYQQKPGQPPKLLIYRASTRESGVPDRFSGSGSRTDFTLTISSLQAEDVAVYYCQQSKEDPLTFGGGTKVEIKASTTTPAPRPPTPAPTIASQPLSLRPEACRPAAGGAVHTRGLDFACDFWVLVVVGGVLACYSLLVTVAFIIFWVRSKRSRLLHSDYMNMTPRRPGPTRKHYQPYAPPRDFAAYRSLRVKFSRSADAPAYQQGQNQLYNELNLGRREEYDVLDKRRGRDPEMGGKPRRKNPQEGLYNELQKDKMAEAYSEIGMKGERRRGKGHDGLYQGLSTATKDTYDALHMQALPPR
notes: CAR on transduced human T cells; I to A in HC CDR3; P2A remnant not included; also called MycTAffy6-I3A CAR-SSTR2
EC50 [1]: 20.9 µM
percent cytotoxicity, H1993, 24 hrs [14]: 73.1%
percent cytotoxicity, H1993, 48 hrs [14]: 95.3%
percent cytotoxicity, H1993, 72 hrs [14]: 98.9%
Fold Change [15]: 956 fold

B3: Affy6-I3W CAR (other)
chain: B2 chain with A115W
notes: CAR on transduced human T cells; I to W in HC CDR3; P2A remnant not included; also called MycT-Affy6-I3W CAR-SSTR2
Fold Change [16]: 167 fold
EC50 [17]: 3.6 µM
percent cytotoxicity, H1993, 24 hrs [14]: 74.9%
percent cytotoxicity, H1993, 48 hrs [14]: 93.5%
percent cytotoxicity, H1993, 72 hrs [14]: 98.2%
cytotoxicity, Normal Human Lung Cells, 8 hrs [18]: 14.3
cytotoxicity, Normal Human Lung Cells, 16 hrs [18]: 20.9
cytotoxicity, Normal Human Lung Cells, 24 hrs [18]: 30.6
cytotoxicity, Normal Human Lung Cells, 32 hrs [18]: 34
cytotoxicity, Normal Human Lung Cells, 40 hrs [18]: 41.2
cytotoxicity, Normal Human Lung Cells, 48 hrs [18]: 42.7
cytotoxicity, Normal Human Kidney Cells, 8 hrs [19]: 23.6
cytotoxicity, Normal Human Kidney Cells, 16 hrs [19]: 39.4
cytotoxicity, Normal Human Kidney Cells, 24 hrs [19]: 46
cytotoxicity, Normal Human Kidney Cells, 32 hrs [19]: 48.6
cytotoxicity, Normal Human Kidney Cells, 40 hrs [19]: 43.6
cytotoxicity, Normal Human Kidney Cells, 48 hrs [19]: 39.5
cytotoxicity, Normal Human Liver Cells, 8 hrs [20]: 15.1
cytotoxicity, Normal Human Liver Cells, 16 hrs [20]: 32.4
cytotoxicity, Normal Human Liver Cells, 24 hrs [20]: 44
cytotoxicity, Normal Human Liver Cells, 32 hrs [20]: 52.5
cytotoxicity, Normal Human Liver Cells, 40 hrs [20]: 52.4
cytotoxicity, Normal Human Liver Cells, 48 hrs [20]: 53.6
cytotoxicity, Normal Human Colon Cells, 8 hrs [21]: 18.8
cytotoxicity, Normal Human Colon Cells, 16 hrs [21]: 22.7
cytotoxicity, Normal Human Colon Cells, 24 hrs [21]: 27
cytotoxicity, Normal Human Colon Cells, 32 hrs [21]: 29.9
cytotoxicity, Normal Human Colon Cells, 40 hrs [21]: 30.9
cytotoxicity, Normal Human Colon Cells, 48 hrs [21]: 38.6
